Measurements from US20030236190A1 (published 2003).
Read-outs that look alike come from different tables or passages of the source. Blank lines part the entries; values can stand above or below the binder they belong to. No end group written: not given here.

Tests used:
[1] = molecular target: T1, soluble human insulin receptor-immunoglobulin heavy chain chimera (sIR-Fc) (human, UniProt P06213 28-956, limits assumed, Eu3+ label (LANCE) in the TR-FRET assays); assay: FP competition vs FITC-RP9, sIR-Fc
T1 construct: extracellular domain; construct of Bass et al., 1996; also called HIR-immunoglobulin heavy chain chimera; not shown: immunoglobulin heavy chain constant domains

[2] = molecular target: T2, human insulin receptor (HIR) (human, UniProt P06213 28-1382, limits assumed); assay: RRA, 125I-insulin competition, HIR
[3] = molecular target: T1, soluble human insulin …; assay: TR-FRET competition vs b-S175, sIR-Fc
Protocol: (§1) The TR-FRET assays were performed in a 384-well white microplate with a final volume of 30 μl.

[4] = molecular target: T1, soluble human insulin …; assay: TR-FRET competition vs b-RP9, sIR-Fc
From the text: Time-resolved fluorescence resonance energy transfer assays (TR-FRET) were used for peptide competition studies.
This was used to determine IC₅₀ values.

[5] = molecular target: T3, soluble HIR ectodomain (sIR) (human, UniProt P06213-2 28-944, limits assumed); assay: FP competition vs FITC-RP9, sIR
T3 construct: extracellular domain
From the text: Fluorescence polarization assays (FP) were used for peptide competition studies.

[6] = molecular target: T2, human insulin receptor (HIR); assay: cell-based or functional assay
[7] = molecular target: insulin receptor (IR) on mouse free fat cells (mouse, UniProt P15208 28-1372); assay: cell-based or functional assay
Sequence of insulin receptor (IR) on mouse free fat cells (P15208 28-1372): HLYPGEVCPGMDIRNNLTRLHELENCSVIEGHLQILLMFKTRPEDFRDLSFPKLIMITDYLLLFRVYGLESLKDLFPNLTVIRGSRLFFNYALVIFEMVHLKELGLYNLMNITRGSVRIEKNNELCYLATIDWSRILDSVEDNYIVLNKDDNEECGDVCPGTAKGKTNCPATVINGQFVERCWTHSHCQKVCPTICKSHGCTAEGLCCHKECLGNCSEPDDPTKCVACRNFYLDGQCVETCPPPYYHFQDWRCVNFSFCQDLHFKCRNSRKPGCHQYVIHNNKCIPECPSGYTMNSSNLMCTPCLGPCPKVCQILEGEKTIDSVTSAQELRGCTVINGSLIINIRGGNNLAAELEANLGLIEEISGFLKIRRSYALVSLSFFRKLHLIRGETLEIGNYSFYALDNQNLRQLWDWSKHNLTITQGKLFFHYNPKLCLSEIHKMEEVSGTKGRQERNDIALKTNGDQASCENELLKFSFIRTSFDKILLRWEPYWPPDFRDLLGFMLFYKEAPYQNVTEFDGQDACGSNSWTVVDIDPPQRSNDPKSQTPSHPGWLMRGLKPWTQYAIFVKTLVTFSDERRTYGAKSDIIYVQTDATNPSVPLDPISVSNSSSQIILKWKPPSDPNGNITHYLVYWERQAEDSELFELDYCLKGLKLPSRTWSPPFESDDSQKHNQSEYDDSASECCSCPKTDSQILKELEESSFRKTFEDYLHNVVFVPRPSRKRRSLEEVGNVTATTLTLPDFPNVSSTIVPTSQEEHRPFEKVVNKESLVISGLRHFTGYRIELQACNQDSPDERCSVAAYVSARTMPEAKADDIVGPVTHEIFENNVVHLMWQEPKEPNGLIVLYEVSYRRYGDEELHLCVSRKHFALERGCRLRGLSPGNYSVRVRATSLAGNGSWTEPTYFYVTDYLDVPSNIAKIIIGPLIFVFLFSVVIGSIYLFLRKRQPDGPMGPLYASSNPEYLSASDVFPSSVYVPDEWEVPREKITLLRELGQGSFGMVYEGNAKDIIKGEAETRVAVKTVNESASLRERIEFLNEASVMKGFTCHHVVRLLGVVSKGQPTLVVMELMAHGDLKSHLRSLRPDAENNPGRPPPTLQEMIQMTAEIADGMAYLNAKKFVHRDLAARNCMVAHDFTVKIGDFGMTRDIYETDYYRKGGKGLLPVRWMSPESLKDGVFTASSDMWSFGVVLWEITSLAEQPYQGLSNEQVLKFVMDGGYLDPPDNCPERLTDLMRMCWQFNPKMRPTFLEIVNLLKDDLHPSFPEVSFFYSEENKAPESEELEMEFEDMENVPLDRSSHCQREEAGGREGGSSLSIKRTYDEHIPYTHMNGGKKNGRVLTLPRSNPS

[8] = molecular target: T2, human insulin receptor (HIR); assay: 125I-insulin competition, solubilised HIR
[9] = molecular target: T4, Human insulin receptor (HIR), purified from transfected cells after solubilization with Triton X-100 (human, UniProt P06213 28-1382, limits assumed); assay: competition with 125I-insulin for solubilised HIR, PEG precipitation; Kd calculated from the competition curve
T4 construct: Detergent-solubilised receptor

[10] = molecular target: T5, human insulin receptor (HIR), purified from transfected cells after solubilization with Triton X-100 (human, UniProt P06213 28-1382, limits assumed); assay: 125I-insulin competition on HIR
T5 construct: also called WGA-purified recombinant human insulin receptor

[11] = molecular target: human IGF-1 receptor (HIGF-1R) (human, UniProt P08069 31-1367); assay: 125I-IGF-1 competition, solubilised HIGF-1R
[12] = molecular target: T1, soluble human insulin …; assay: TR-FRET competition vs b-S175, sIR-Fc (column as given)
Protocol: as §1

[13] = molecular target: T4, Human insulin receptor (HIR), purified …; assay: competition with 125I-insulin for solubilised HIR, PEG precipitation; Kd calculated from the competition curve; remark: listed apart in the source

IC50 [1]: 10 nM | IC50 [2]: 44 nM | IC50 [3]: 6 nM | IC50 [4]: 42 nM | IC50 [5]: 0.03 nM
B1: RP9 (peptide)
peptide: GSLDESFYDWFERQLGKK
modifications: also: biotin (b-RP9) or fluorescein (FITC-RP9) label where used, site not given here
notes: also called S371; b-RP9

IC50 [3]: 10 nM | IC50 [5]: 0.5 nM
Binder: EEDWLQRNANFYDWFVAELX (C-terminal Lig'; copies joined C-C by chemical linker 9, also called (EE-short-S175-Lig)2-9) [S380]

Kinase Pot. [6]: 1400 nM | FFC Pot. [7]: 3 nM | Kd [8]: 25 nM
B2: 521 (peptide)
peptide: MADYKDDDDKGSLDESFYDWFERQLGKKGGSGGSGSLDESFYDWFERQLGKKAAAGAPVPYPDPLEPRPG
notes: recombinant dimer with tags at both ends (FLAG, E-Tag); also called RP9-6aa-RP9

Kd [9]: 180 nM
B3: S374 (peptide)
peptide: XGSLDESFYDWFERQLGKK
chain: XGSLDESFYDWFERQLGKK
modifications: not fully specified; the two chains are joined N-terminus to N-terminus through chemical linker 17 of Table 3 (Table 7 prints an N-terminal Ald group on each chain)
notes: Synthetic RP9 homodimer (Site 1-Site 1, N-N)

IC50 [1]: 50 nM | IC50 [2]: 700 nM | IC50 [3]: 410 nM | IC50 [4]: 1630 nM | IC50 [5]: 37 nM
Binder: FHENFYDWFVQRVSKK (also called D117) [H2C]

Kinase Pot. [6]: 110 nM | FFC Pot. [7]: 10 nM | Kd [8]: 0.53 nM
B4: 539 (peptide)
peptide: MADYKDDDDKWLDQEWAWVQCEVYGRGCPSGGSGGSGSLDESFYDWFERQLGKKAAAGAPVPYPDPLEPRPG
notes: recombinant dimer with tags at both ends; also called D8-6aa-RP9

binding result [10]: binds
B5: S374: 17-(Ald-GSLDESFYDWFERQLGKK)2 (peptide)
peptide: XGSLDESFYDWFERQLGKK
modifications: N-terminal Ald (aldehyde from periodate oxidation of a serine); the two chains joined N-N through chemical linker 17 of Table 3
notes: also called synthetic RP9 homodimer S374

Kd [11]: 980 nM | FFC Pot. [7]: 10 nM | Kd [8]: 0.092 nM
B6: 537 (peptide)
peptide: MADYKDDDDKGSLDESFYDWFERQLGKKGGSGGSWLDQEWAWVQCEVYGRGCPSAAAGAPVPYPDPLEPRPG
notes: recombinant dimer with tags at both ends; also called RP9-6aa-D8

Kd [11]: 710 nM | FFC Pot. [7]: 10 nM | Kd [8]: 0.08 nM
B7: 538 (peptide)
peptide: MADYKDDDDKGSLDESFYDWFERQLGKKGGSGGSGGSGGSWLDQEWAWVQCEVYGRGCPSAAAGAPVPYPDPLEPRPG
notes: recombinant dimer with tags at both ends; also called RP9-12aa-D8

IC50 [12]: 755 nM | IC50 [1]: 207 nM | IC50 [2]: 2200 nM
Binder: GGTVWPGYEWLRNA [E8 (D120)]

Kd [13]: 630 nM | Kd [9]: 630 nM
B8: S371 (peptide)
peptide: GSLDESFYDWFERQLGKK
notes: Synthetic RP9 monomer peptide; also called RP9; S371 (RP9)
